Source: the supplement of paper PMC5998384

Columns and labels:
HeLa Kyoto [1] = assay: solubility in G1/S (NP-40 vs SDS abundance) (log2 ratio); higher = more soluble; settings: cell cycle stage: G1/S
HeLa Kyoto [2] = assay: solubility change mitosis vs G1/S (difference of NP-40 vs SDS log2 ratios) (log2 ratio difference); higher = more soluble in mitosis
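For solubility change mitosis vs G1/S (difference of NP-40 vs SDS log2 ratios) in this document: synchronized HeLa Kyoto cells (double thymidine block for G1/S, nocodazole release for mitosis), protein amounts in NP-40 versus SDS lysates quantified by mass spectrometry, three biological replicates.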
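For solubility in G1/S (NP-40 vs SDS abundance) in this document: HeLa Kyoto cells arrested at G1/S by double thymidine block, proteins quantified by TMT10plex mass spectrometry in mild NP-40 versus SDS extracts, three biological replicates.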

Row | Sequence | solubility in G1/S (log2) (HeLa Kyoto [1]) | solubility change mitosis (log2) (HeLa Kyoto [2])
1 | MTQQPQDDFDRSVEDAQAWMKAVQDQLQVNDNTQGPRAALEARLWETEKICQLEPEGRVRVDLVLRMAEALLACCPGDQKPGILARLKDIKAQWEETVTYMTHCHSRIEWVWLHWSEYLLARDEFYRWFQKMMVTLEPHIELQLGLKEKQWQLSHAQVLLHNVDNQAVLLDRLLEEAASLFNRIGDPSVDEDAQKRMKAEYDAVKAKAQKRVDLLEQVAREHEEYQAGVDEFQLWLKAVVEKVNGCLGRNCKLPITQRLSTLQDIAKDFPRGEESLETLEEQSAGVIRNTSPLGAEKITGELEEMRKVLEKLRALWEEEEERLRGLLRSRGAWEQQIKQLEAELSEFRMVLQRLAQEGLQPAAKAGTEDELVAHWRRYSATRAALASEEPRVDRLQAQLKELIVFPHNLKPLSDSVIATIQEYQSLKVKSARLRNAAAVELWQHFQRPLQDLQLWKALAQRLLEVTASLPDLPSLHTFLPQIEAALMESSRLKELLTMLQLKKDLLIGIFGQERATALLEQVAGSMRDRDLLHNSLLQRKSKLQSLLAQHKDFGAAFEPLQRKLLDLQVRVQAEKGLQRDLPGKQAQLSRLQGLQEEGLDLGAQMEAARPLVQENPNHQHKMDQLSSDFQALQRSLEDLVDRCRQSVQEHCTFSHQLLELRQWIVVTTQKLEAHRGEAGPGDAESQEAEFERLVAEFPEKEAQLSLVEAQGWLVMEKSSPEGAAVVQEELRELAESWRALRLLEESLLSLIRNWHLQRMEVDSGKKMVFTNNIPKSGFLINPMDPIPRHRRRANLLQEEEGSHEDFSQLLRNFGQWLQVENSKLVRIIAMRTSTAEDLRTRKSKLQELEARVPEGQHLFENLLRLGPARGTSDELEDLRYQWMLYKSKLKDSGHLLTQSSPGEPTGFQKTRRWRGLGSLFRRACCVALPLQLLLLLFLLLLFLLPIREEDRSCTLANNFARSFTLMLRYNGPPPT [SYNE3] | -0.89 | 0.336
2 | MTYAYLFKYIIIGDTGVGKSCLLLQFTDKRFQPVHDLTIGVEFGARMVNIDGKQIKLQIWDTAGQESFRSITRSYYRGAAGALLVYDITRRETFNHLTSWLEDARQHSSSNMVIMLIGNKSDLESRRDVKREEGEAFAREHGLIFMETSAKTACNVEEAFINTAKEIYRKIQQGLFDVHNEANGIKIGPQQSISTSVGPSASQRNSRDIGSNSGCC [RAB2B] | -0.221 | -0.115
3 | MVAMAEAEAGVAVEVRGLPPAVPDELLTLYFENRRRSGGGPVLSWQRLGCGGVLTFREPADAERVLAQADHELHGAQLSLRPAPPRAPARLLLQGLPPGTTPQRLEQHVQALLRASGLPVQPCCALASPRPDRALVQLPKPLSEADVRVLEEQAQNLGLEGTLVSLARVPQARAVRVVGDGASVDLLLLELYLENERRSGGGPLEDLQRLPGPLGTVASFQQWQVAERVLQQEHRLQGSELSLVPHYDILEPEELAENTSGGDHPSTQGPRATKHALLRTGGLVTALQGAGTVTMGSGEEPGQSGASLRTGPMVQGRGIMTTGSGQEPGQSGTSLRTGPMGSLGQAEQVSSMPMGSLEHEGLVSLRPVGLQEQEGPMSLGPVGSAGPVETSKGLLGQEGLVEIAMDSPEQEGLVGPMEITMGSLEKAGPVSPGCVKLAGQEGLVEMVLLMEPGAMRFLQLYHEDLLAGLGDVALLPLEGPDMTGFRLCGAQASCQAAEEFLRSLLGSISCHVLCLEHPGSARFLLGPEGQHLLQGLEAQFQCVFGTERLATATLDTGLEEVDPTEALPVLPGNAHTLWTPDSTGGDQEDVSLEEVRELLATLEGLDLDGEDWLPRELEEEGPQEQPEEEVTPGHEEEEPVAPSTVAPRWLEEEAALQLALHRSLEPQGQVAEQEEAAALRQALTLSLLEQPPLEAEEPPDGGTDGKAQLVVHSAFEQDVEELDRALRAALEVHVQEETVGPWRRTLPAELRARLERCHGVSVALRGDCTILRGFGAHPARAARHLVALLAGPWDQSLAFPLAASGPTLAGQTLKGPWNNLERLAENTGEFQEVVRAFYDTLDAARSSIRVVRVERVSHPLLQQQYELYRERLLQRCERRPVEQVLYHGTTAPAVPDICAHGFNRSFCGRNATVYGKGVYFARRASLSVQDRYSPPNADGHKAVFVARVLTGDYGQGRRGLRAPPLRGPGHVLLRYDSAVDCICQPSIFVIFHDTQALPTHLITCEHVPRASPDDPSGLPGRSPDT [PARP10] | 0.14 | 0.0134
4 | MVARRRKCAARDPEDRIPSPLGYAAIPIKFSEKQQASHYLYVRAHGVRQGTKSTWPQKRTLFVLNVPPYCTEESLSRLLSTCGLVQSVELQEKPDLAESPKESRSKFFHPKPVPGFQVAYVVFQKPSGVSAALALKGPLLVSTESHPVKSGIHKWISDYADSVPDPEALRVEVDTFMEAYDQKIAEEEAKAKEEEGVPDEEGWVKVTRRGRRPVLPRTEAASLRVLERERRKRSRKELLNFYAWQHRESKMEHLAQLRKKFEEDKQRIELLRAQRKFRPY [RRP7A] | -1.58 | 1.02
5 | MVGRSRRRGAAKWAAVRAKAGPTLTDENGDDLGLPPSPGDTSYYQDQVDDFHEARSRAALAKGWNEVQSGDEEDGEEEEEEVLALDMDDEDDEDGGNAGEEEEEENADDDGGSSVQSEAEASVDPSLSWGQRKKLYYDTDYGSKSRGRQSQQEAEEEEREEEEEAQIIQRRLAQALQEDDFGVAWVEAFAKPVPQVDEAETRVVKDLAKVSVKEKLKMLRKESPELLELIEDLKVKLTEVKDELEPLLELVEQGIIPPGKGSQYLRTKYNLYLNYCSNISFYLILKARRVPAHGHPVIERLVTYRNLINKLSVVDQKLSSEIRHLLTLKDDAVKKELIPKAKSTKPKPKSVSKTSAAACAVTDLSDDSDFDEKAKLKYYKEIEDRQKLKRKKEENSTEEQALEDQNAKRAITYQIAKNRGLTPRRKKIDRNPRVKHREKFRRAKIRRRGQVREVRKEEQRYSGELSGIRAGVKKSIKLK [UTP3] | -1.76 | 1.04
6 | MVHAFLIHTLRAPNTEDTGLCRVLYSCVFGAEKSPDDPRPHGAERDRLLRKEQILAVARQVESMCRLQQQASGRPPMDLQPQSSDEQVPLHEAPRGAFRLAAENPFQEPRTVVWLGVLSLGFALVLDAHENLLLAEGTLRLLTRLLLDHLRLLAPSTSLLLRADRIEGILTRFLPHGQLLFLNDQFVQGLEKEFSAAWPR [AP5S1] | -0.269 | -0.153
7 | MVKLFIGNLPREATEQEIRSLFEQYGKVLECDIIKNYGFVHIEDKTAAEDAIRNLHHYKLHGVNINVEASKNKSKASTKLHVGNISPTCTNQELRAKFEEYGPVIECDIVKDYAFVHMERAEDAVEAIRGLDNTEFQGKRMHVQLSTSRLRTAPGMGDQSGCYRCGKEGHWSKECPVDRTGRVADFTEQYNEQYGAVRTPYTMGYGESMYYNDAYGALDYYKRYRVRSYEAVAAAAAASAYNYAEQTMSHLPQVQSTTVTSHLNSTSVDPYDRHLLPNSGAAATSAAMAAAAATTSSYYGRDRSPLRRAAAMLPTVGEGYGYGPESELSQASAATRNSLYDMARYEREQYVDRARYSAF [RBM4B] | 0.227 | -0.335
8 | MVLKAFFPTCCVSTDSGLLVGRWVPEQSSAVVLAVLHFPFIPIQVKQLLAQVRQASQVGVAVLGTWCHCRQEPEESLGRFLESLGAVFPHEPWLRLCRERGGTFWSCEATHRQAPTAPGAPGEDQVMLIFYDQRQVLLSQLHLPTVLPDRQAGATTASTGGLAAVFDTVARSEVLFRSDRFDEGPVRLSHWQSEGVEASILAELARRASGPICLLLASLLSLVSAVSACRVFKLWPLSFLGSKLSTCEQLRHRLEHLTLIFSTRKAENPAQLMRKANTVASVLLDVALGLMLLSWLHGRSRIGHLADALVPVADHVAEELQHLLQWLMGAPAGLKMNRALDQVLGRFFLYHIHLWISYIHLMSPFVEHILWHVGLSACLGLTVALSLLSDIIALLTFHIYCFYVYGARLYCLKIHGLSSLWRLFRGKKWNVLRQRVDSCSYDLDQLFIGTLLFTILLFLLPTTALYYLVFTLLRLLVVAVQGLIHLLVDLINSLPLYSLGLRLCRPYRLADKPTALQPRGAHLPPPQLWLPPQALLGRPVPQAVPWGAHLPLEAERGQAGLRELLARLAPPHGHSQPSALPGWHQLSWRMSCALWTLLCAPEHGRPCYHTLGLEVIGSEQMWGWPARLAALHHWHCLPWDPLPTCCGHHGGEHSNPRCPEHCPMPTLCTQVQRVRPPQQPQVEGWSPWGLPSGSALAVGVEGPCQDEPPSPRHPLAPSAEQHPASGGLKQSLTPVPSGPGPSLPEPHGVYLRMFPGEVAL [PIGQ] | -0.0206 | -0.119
9 | MVMADGPRHLQRGPVRVGFYDIEGTLGKGNFAVVKLGRHRITKTEVAIKIIDKSQLDAVNLEKIYREVQIMKMLDHPHIIKLYQVMETKSMLYLVTEYAKNGEIFDYLANHGRLNESEARRKFWQILSAVDYCHGRKIVHRDLKAENLLLDNNMNIKIADFGFGNFFKSGELLATWCGSPPYAAPEVFEGQQYEGPQLDIWSMGVVLYVLVCGALPFDGPTLPILRQRVLEGRFRIPYFMSEDCEHLIRRMLVLDPSKRLTIAQIKEHKWMLIEVPVQRPVLYPQEQENEPSIGEFNEQVLRLMHSLGIDQQKTIESLQNKSYNHFAAIYFLLVERLKSHRSSFPVEQRLDGRQRRPSTIAEQTVAKAQTVGLPVTMHSPNMRLLRSALLPQASNVEAFSFPASGCQAEAAFMEEECVDTPKVNGCLLDPVPPVLVRKGCQSLPSNMMETSIDEGLETEGEAEEDPAHAFEAFQSTRSGQRRHTLSEVTNQLVVMPGAGKIFSMNDSPSLDSVDSEYDMGSVQRDLNFLEDNPSLKDIMLANQPSPRMTSPFISLRPTNPAMQALSSQKREVHNRSPVSFREGRRASDTSLTQGIVAFRQHLQNLARTKGILELNKVQLLYEQIGPEADPNLAPAAPQLQDLASSCPQEEVSQQQESVSTLPASVHPQLSPRQSLETQYLQHRLQKPSLLSKAQNTCQLYCKEPPRSLEQQLQEHRLQQKRLFLQKQSQLQAYFNQMQIAESSYPQPSQQLPLPRQETPPPSQQAPPFSLTQPLSPVLEPSSEQMQYSPFLSQYQEMQLQPLPSTSGPRAAPPLPTQLQQQQPPPPPPPPPPRQPGAAPAPLQFSYQTCELPSAASPAPDYPTPCQYPVDGAQQSDLTGPDCPRSPGLQEAPSSYDPLALSELPGLFDCEMLDAVDPQHNGYVLVN [SIK2] | 0.0463 | -0.0513
10 | MVPGARGGGALARAAGRGLLALLLAVSAPLRLQAEELGDGCGHLVTYQDSGTMTSKNYPGTYPNHTVCEKTITVPKGKRLILRLGDLDIESQTCASDYLLFTSSSDQYGPYCGSMTVPKELLLNTSEVTVRFESGSHISGRGFLLTYASSDHPDLITCLERASHYLKTEYSKFCPAGCRDVAGDISGNMVDGYRDTSLLCKAAIHAGIIADELGGQISVLQRKGISRYEGILANGVLSRDGSLSDKRFLFTSNGCSRSLSFEPDGQIRASSSWQSVNESGDQVHWSPGQARLQDQGPSWASGDSSNNHKPREWLEIDLGEKKKITGIRTTGSTQSNFNFYVKSFVMNFKNNNSKWKTYKGIVNNEEKVFQGNSNFRDPVQNNFIPPIVARYVRVVPQTWHQRIALKVELIGCQITQGNDSLVWRKTSQSTSVSTKKEDETITRPIPSEETSTGINITTVAIPLVLLVVLVFAGMGIFAAFRKKKKKGSPYGSAEAQKTDCWKQIKYPFARHQSAEFTISYDNEKEMTQKLDLITSDMADYQQPLMIGTGTVTRKGSTFRPMDTDAEEAGVSTDAGGHYDCPQRAGRHEYALPLAPPEPEYATPIVERHVLRAHTFSAQSGYRVPGPQPGHKHSLSSGGFSPVAGVGAQDGDYQRPHSAQPADRGYDRPKAVSALATESGHPDSQKPPTHPGTSDSYSAPRDCLTPLNQTAMTALL [DCBLD1] | 0.0249 | -0.0211
